Measured values published in patent US20260077065A1, “Compositions and Methods for Assessing Kinase Activity” (The Board of Trustees of the Leland Stanford Junior …, priority 2022, published 2026).

B1: tKiMBI: ERK KiMBI with N-terminal tdTomato; SEQ ID NO:4 (protein)
chain: MVSKGEEVIKEFMRFKVRMEGSMNGHEFEIEGEGEGRPYEGTQTAKLKVTKGGPLPFAWDILSPQFMYGSKAYVKHPADIPDYKKLSFPEGFKWERVMNFEDGGLVTVTQDSSLQDGTLIYKVKMRGTNFPPDGPVMQKKTMGWEASTERLYPRDGVLKGEIHQALKLKDGGHYLVEFKTIYMAKKPVQLPGYYYVDTKLDITSHNEDYTIVEQYERSEGRHHLFLGHGTGSTGSGSSGTASSEDNNMAVIKEFMRFKVRMEGSMNGHEFEIEGEGEGRPYEGTQTAKLKVTKGGPLPFAWDILSPQFMYGSKAYVKHPADIPDYKKLSFPEGFKWERVMNFEDGGLVTVTQDSSLQDGTLIYKVKMRGTNFPPDGPVMQKKTMGWEASTERLYPRDGVLKGEIHQALKLKDGGHYLVEFKTIYMAKKPVQLPGYYYVDTKLDITSHNEDYTIVEQYERSEGRHHLFRLEDFVGDWEQTAAYNLDQVLEQGGVSSLLQNLAVSVTPIQRIVRSGENALKIDIHVIIPYEGLSADQMAQIEEVFKVVYPVDDHHFKVILPYGTLVIDGVTPNMLNYFGRPYEGIAVFDGKKITVTGTLWNGNKIIDERLITPDGSMLFRVTINSIMADEEKLPPGWEKRMSRSSGRVYYFNHITNASQWERPSGNSSSGGKNGQGEPARVTGYRLFEPDSPRTPVDKAKLSFQFP
B2: bKiMBI: ERK blue KiMBI, WW F25A; SEQ ID NO:2 (protein)
chain: MVSKGEELIKENMRSKLYLEGSVNGHQFKCTHEGEGKPYEGKQTNRIKVVEGGPLPFAFDILATHFMYGSKVFIKYPADLPDYFKQSFPEGFTWERVMVFEDGGVLTATQDTSLQDGELIYNVKVRGVNFPANGPVMQKKTLGWEPSTETMYPADGGLEGRCDKALKLVGGGHLHVNFKTTYKSKKPVKMPGVHYVDRRLERIKEADNETYVEQYEHAVARYSNLGGGFTLEDFVGDWEQTAAYNLDQVLEQGGVSSLLQNLAVSVTPIQRIVRSGENALKIDIHVIIPYEGLSADQMAQIEEVFKVVYPVDDHHFKVILPYGTLVIDGVTPNMLNYFGRPYEGIAVFDGKKITVTGTLWNGNKIIDERLITPDGSMLFRVTINSIMADEEKLPPGWEKRMSRSSGRVYYANHITNASQWERPSGNSSSGGKNGQGEPARVTGYRLFEPDSPRTPVDKAKLSFQFP

Columns and labels:
[1] = test system: ERK; assay: ERK KiMBI cell-based bioluminescent assay, HEK293A cells co-transfected with caMEK; conditions: FIG. 5d
From the text: To develop a luciferase reporter protein whose activity can be activated by ERK inhibition, it was hypothesized that NanoLuc luciferase catalytic activity could be modulated through large ERK-induced conformational changes. Created and tested were fusion proteins of various topologies (FIG. 2a) comprising the NanoLuc NanoBiT fragments, an ERK substrate peptide from Cdc25C^7, and a proline-directed WW phospho-binding domain (WW)^8 from Pin1. In particular, an arrangement was postulated in which binding of phosphorylated substrate (pSub) to WW would force the SmBiT fragment to adopt an unfavorable conformation for LgBiT complementation, would show low luminescence with active ERK and high luminescence with inhibited ERK (FIG. 2b). […]
In vitro cell-based bioluminescent assay. […] Then, for assaying luminescence, Nano-Glo live cell assay system (Promega) was used following manufacturer's instructions. Time-lapse live luminescence was recorded on Safire-2 microplate reader (Tecan) with 100 ms integration and one read per min for 20 min. Luminescence spectrum was measured on a Varioskan LUX multimode microplate reader (Thermo Scientific) using the spectral scanning protocol with 1 s integration for each wavelength at 400-680 nm (1 nm per data point).

[2] = test system: ERK; assay: bKiMBI bioluminescence in cancer cell lines U87, U87-EGFRvIII, SK-OV-3; type: cell-based, human; conditions: SK-OV-3 cells
From the text: Endogenous ERK activity in these cell lines appeared to be only partially activated, as co-expressing caMEK further suppressed basal KiMBI signal. […] This provides additional evidence that KiMBI responds positively to ERK inhibition, and argues against inhibitors directly binding KiMBIs to enhance NanoLuc assembly or catalysis. […] Positive KiMBI responses must actually overcome this tendency of kinase inhibitors to suppress bioluminescence.
In vitro cell-based bioluminescent assay. Cells were seeded into 96-well Lumitrac plate (Greiner Bio-One) at a density of 1.5-2×10^4 cells per well. After 24 h, cells were transiently transfected with KiMBI-expressing plasmids (5-10 ng per well) with or without caMEK-expressing plasmids (50 ng per well, empty pcDNA3.1 as negative control to keep total transfected DNA amount consistent) using lipofectamine 3000 (Invitrogen) following manufacturer's instructions. […] Then, for assaying luminescence, Nano-Glo live cell assay system (Promega) was used following manufacturer's instructions. Time-lapse live luminescence was recorded on Safire-2 microplate reader (Tecan) with 100 ms integration and one read per min for 20 min. Luminescence spectrum was measured on a Varioskan LUX multimode microplate reader (Thermo Scientific) using the spectral scanning protocol with 1 s integration for each wavelength at 400-680 nm (1 nm per data point).

| Molecule | time to full induction of reporter by kinase inhibitor [1] | bKiMBI response (brightness increase) after ERK inhibition [2] |
| --- | --- | --- |
| B1 | ~1 h |  |
| B2 |  | ~2.5 fold |
